Among the data in paper PMC6480404 are stoichiometry N and Kd values, retold here.

The target of assay [1] is Streptococcus pyogenes Cas9 (Streptococcus pyogenes) (UniProt Q99ZW2). Briefly: cryo-EM structure.
For assay [2] the target is unchanged. Briefly: native gel or EMSA.

The stoichiometry N is a count of units in the complex or per binding partner. The term Kd denotes the constant that tells how readily two partners part at equilibrium. AcrIIA2 (natural protein) showed a stoichiometry N in assay [1] of 1. In assay [2], the dissociation constant (Kd) is 512 nM.
